{"source": "patent US20050114927A1", "about": "(RUTGERS THE STATE UNIVERSITY, published 2005)", "biological_target": "T1, Yeast wild-type ribosomal protein L3 (rpl3), in vitro synthesized, free form (Saccharomyces cerevisiae (yeast), UniProt P14126 1-387)", "T1 construct": "also called wild-type L3; radiolabeled L3", "T1 sequence (P14126 whole entry)": "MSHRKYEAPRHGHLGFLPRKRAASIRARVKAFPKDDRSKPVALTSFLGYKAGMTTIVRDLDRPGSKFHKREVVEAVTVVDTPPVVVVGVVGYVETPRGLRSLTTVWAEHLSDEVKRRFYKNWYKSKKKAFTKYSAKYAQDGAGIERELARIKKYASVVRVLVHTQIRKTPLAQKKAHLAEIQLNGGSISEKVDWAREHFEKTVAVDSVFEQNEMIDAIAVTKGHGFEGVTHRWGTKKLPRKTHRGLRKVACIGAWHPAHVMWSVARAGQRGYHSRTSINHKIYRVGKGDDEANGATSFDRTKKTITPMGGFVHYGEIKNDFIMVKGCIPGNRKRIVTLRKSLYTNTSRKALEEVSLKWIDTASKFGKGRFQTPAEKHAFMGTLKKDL", "experiment": "co-immunoprecipitation, isolated proteins in vitro", "data": [{"binder": "Pokeweed antiviral protein (PAP) (enzyme, mature) VNTIIYNVGSTTISKYATFLNDLRNEAKDPSLKCYGIPMLPNTNTNPKYVLVELQGSNKKTITLMLRRNNLYVMGYSDPFETNKCRYHIFNDISGTERQDVETTLCPNANSRVSKNINFDSRYPTLESKAGVKSRSQVQLGIQILDSNIGKISGVMSFTEKTEAEFLLVAIQMVSEAARFKYIENQVKTNFNRAFNPNPKVLNLQETWGKISTAIHDAKNGVLPKPLELVDASGAKWIVLRVDEIKPDVALLNYVGGSCQTTY", "values": [{"measurement": "binding result", "result": "binds"}]}]}
